Results from US20210032352A1 (ANTERA THERAPEUTICS, published 2021).

Legend:
FZD6 ECD, Fc-tagged = target: T1, FZD6 ECD, Fc-tagged (human, UniProt O60353 19-132); assay: kinetic table (called BLI in paragraph 35)
T1 construct: range 19-132; Made in Expi293 cells; single protomer species purified by size exclusion; not shown: human IgG1 Fc of the pFUSE-hIgG1-Fc2 vector (Invivogen)
T1 sequence (looked up): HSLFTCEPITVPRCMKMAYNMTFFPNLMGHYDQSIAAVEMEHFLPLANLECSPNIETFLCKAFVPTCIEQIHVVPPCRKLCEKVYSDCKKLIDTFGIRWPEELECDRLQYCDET

FZD9 CRD, Fc-tagged = target: T2, FZD9 CRD, Fc-tagged (human, UniProt O00144 23-187); assay: kinetic table (called BLI in paragraph 35)
T2 construct: domain: CRD; Bought; not shown: Fc tag of the purchased fusion
T2 sequence (looked up): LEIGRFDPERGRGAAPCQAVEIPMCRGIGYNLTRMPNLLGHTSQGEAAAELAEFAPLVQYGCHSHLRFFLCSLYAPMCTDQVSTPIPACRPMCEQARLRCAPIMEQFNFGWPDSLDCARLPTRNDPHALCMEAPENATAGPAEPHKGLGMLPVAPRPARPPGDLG

FZD10 CRD, Fc-tagged = target: T3, FZD10 CRD, Fc-tagged (human, UniProt Q9ULW2 21-161); assay: kinetic table (called BLI in paragraph 35)
T3 construct: domain: CRD; Bought; not shown: Fc tag of the purchased fusion
T3 sequence (looked up): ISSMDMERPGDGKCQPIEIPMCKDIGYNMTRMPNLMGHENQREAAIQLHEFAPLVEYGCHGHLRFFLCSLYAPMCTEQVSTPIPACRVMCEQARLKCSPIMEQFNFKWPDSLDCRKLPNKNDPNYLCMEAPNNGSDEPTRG

FZD2 CRD, Fc-tagged = target: T4, FZD2 CRD, Fc-tagged (human, UniProt Q14332 24-190); assay: kinetic table (called BLI in paragraph 170); the row labels kd and ka are interchanged on the sheet: the KD row equals the 10^-3 row divided by the 10^5 row
T4 construct: domain: CRD; Bought; not shown: Fc tag of the purchased fusion

FZD7 CRD, Fc-tagged = FZD7 CRD, Fc-tagged (human, UniProt O75084 33-185); assay: as above

binding result (FZD6 ECD, Fc-tagged): no binding
binding result (FZD9 CRD, Fc-tagged): no binding
binding result (FZD10 CRD, Fc-tagged): no binding
koff (FZD2 CRD, Fc-tagged): 1.9e-05 s⁻¹
kon (FZD2 CRD, Fc-tagged): 479000 M⁻¹ s⁻¹
koff (FZD7 CRD, Fc-tagged): 2.9e-05 s⁻¹
kon (FZD7 CRD, Fc-tagged): 509000 M⁻¹ s⁻¹
B1: F^P+P-L6^1+3 (5019-K/H-2539-2542) (bispecific antibody)
chain 1: EVQLVESGGGLVQPGGSLRLSCAASGFNIGSSSIHWVRQAPGKGLEWVASIYSAFASTSYADSVKGRFTISADTSKNTAYLQMNSLRAEDTAVYYCARYHFPFGFALDYWGQGTLVTVSSGGGGSDIQMTQSPSSLSASVGDRVTITCRASQSVSSAVAWYQQKPGKAPKLLIYSASSLYSGVPSRFSGSRSGTDFTLTISSLQPEDFATYYCQQGVYLFTFGQGTKVEIKLEDKTHTKVEPKTSDKTHTCPPCPAPELLGGPSVFLFPPKPKDTLMISRTPEVTCVVVDVSHEDPEVKFNWYVDGVEVHNAKTKPREEQYNSTYRVVSVLTVLHQDWLNGKEYKCKVSNKALPAPIEKTISKAKGQPREPMVFDLPPSREEMTKNQVSLWCMVKGFYPSDIAVEWESNGQPENNYKTTPPVLDSDGSFFLYSKLTVDKSRWQQGNVFSCSVMHEALHNHYTQKSLSLSPGKSGSETPGTSESATPESGGGEVQLVESGGGLVQPGGSLRLSCAASGFNISYSSIHWVRQAPGKGLEWVAYISSYYGYTYYADSVKGRFTISADTSKNTAYLQMNSLRAEDTAVYYCARAHYFPWAGAMDYWGQGTLVTVSSGGGGSDIQMTQSPSSLSASVGDRVTITCRASQSVSSAVAWYQQKPGKAPKLLIYSASSLYSGVPSRFSGSRSGTDFTLTISSLQPEDFATYYCQQYYWPITFGQGTKVEIK
chain 2: EVQLVESGGGLVQPGGSLRLSCAASGFNIGSSSIHWVRQAPGKGLEWVASIYSAFASTSYADSVKGRFTISADTSKNTAYLQMNSLRAEDTAVYYCARYHFPFGFALDYWGQGTLVTVSSGGGGSDIQMTQSPSSLSASVGDRVTITCRASQSVSSAVAWYQQKPGKAPKLLIYSASSLYSGVPSRFSGSRSGTDFTLTISSLQPEDFATYYCQQGVYLFTFGQGTKVEIKLEDKTHTKVEPKSSDKTHNCPPCPAPELLGGPSVFLFPPKPKDTLMISRTPEVTCVVVDVSHEDPEVKFNWYVDGVEVHNAKTKPREEQYNSTYRVVSVLTVLHQDWLNGKEYKCKVSNKALPAPIEKTISKAKGQPREPQVYTLPPIRELMTSNQVSLSCAVKGFYPSDIAVEWESNGQPENNYKTTPPVLDSDGSFFLVSKLTVDKSRWQQGNVFSCSVMHEALHNHYTQKSLSLSPGKSGSETPGTSESATPESGGGEVQLVESGGGLVQPGGSLRLSCAASGFNISSYYIHWVRQAPGKGLEWVASIYSSYGYTSYADSVKGRFTISADTSKNTAYLQMNSLRAEDTAVYYCARTVRGSKKPYFSGWAMDYWGQGTLVTVSSGGGGSDIQMTQSPSSLSASVGDRVTITCRASQSVSSAVAWYQQKPGKAPKLLIYSASSLYSGVPSRFSGSRSGTDFTLTISSLQPEDFATYYCQQYSWGPFTFGQGTKVEIK
